This data set can be described thus: label from the status in PepcDB records.
“MQNIARNISNRLAGFVYRQMRKAHANANSTVGYSVNANGALLAGCVIDCRSGKSDGRVFFGKDSVLSCRIVLERDVGTVHIGNDSYVGGSQIICADHIEIGNNVLISWGCTIVDHDSHSVDWRNRAEDVRKWREGLLSGGLEKASESKDWAVVEKAPIKIGDKTWLGMNVTVLKGITIGEGAVVAAGSVVTKDVDPWTLVAGNPARVIKELPKS”: the protein production result was “failed”.

“ALAETVSDFRLPNGLEVVVIEDHRAPVVTHMVWYRVGAADEPPGHSGIAHFLEHLMFKGTDEMSAGEFSATVEAQGGDDNAFTSWDYTAYFQRVAADRLDLMMKMEADRMRDLQMTEEDVRTERQVVLEERSQRTDSDPGAVFSEQSRAAAYLNHPYGIPIIGWRHEIEQLGREDAFSFYRTYYAPNNAILVVAGDVDPAEVRRMAEEHYGALEPTP”: the protein production result is on record as “failed”. In the case of “MNLIINDKTASSSVGQTIGKAARLNHAHVGYVCGGHGLCQACYITVQEGADCLAPLTDVEKAFLSPRQIAAGGRMACQATIAKEGTVKVLSRPEEVRRMVFSNPFQLIGYAADMGKDTAQQIVPGVQNLIGRIQRGEMGGKDALGDMIESIQGAAGLVVEAIQQGPMALPIPFKEQIADLISKLPLPQIQLPSISLPQLPSISFPQLPFSLPKLPFSLPFLPQQPQATASLEKVTITVQPPAKD” it was “failed”; in that of “HYRRALSGPVDPGLAVFSAYWDRGVSCNPAAIAAKLAELAPHIHPVWVVARNKAALLPPGTDHIVPGTRRYWEVMARAKYLVNNVNFPNSVVKRPDAIHLQTHHGTPLKRMGLDQREFPAASKGLDFGALLARIDKWDYSVSANSHSTRMWERAYPSHYISLDHGYPRNDVFYSATADDIRAIRDRLGIPPGRRAILYAPTHRDYEAGWTPRLDLASLADRLGEETVLLVRGHYFYGGAASPLAGLRRSGRVIDVSTYDPVEELCLAADALVTDYSSIMFDYANLNRPIVIYADDWETYAKTRGVYFDLMAEGPGQVTRTQDELAAVFESGAWRDEGARKALSAFRRRFCEFDDGRAAERVVR”, “failed”; in that of “MEVSEGIEIIRGDPRRALIKLSGPLIVAMLLTSIYNLVDAVWVAGLGGEALAAIGFVTPIYMILVGLSNGLGAGAASSVSRCLGAGDEEGMNNSASHTIIITLAVSIILTVIIEILLRDILLSLGAAGALKPAMEYGSVVFAGTLFTLFPGAAYGILRSEGDARRPMYAMGLSAVLNMVLDPILIYTAGWGIAGAAWATVISQLLVSLLIIYWFLAGRTFTSIGWSHFRADRGVVWSILSVTIPASAEFLVMSMVTALLNWILTSVAGTSAVAVYSAGWRIVMLAIVPVISVATALVSVSGVAYGSRNFENLEVAHGYSIRLGLLIAGATAALTFVLAPWIAWIFSYSQASSHLAPRITGFLRVICLFYIFLPPGIMSGSIFQGAGRGMTSLMLSVIRQVLLVAVFAYLLAVTLGLGEVGVWWGVVAGDIGGSLVAYLWARLFIGRLRRYAA”, “failed”.

For “MESLLRADQTLIPGAMCSRRVWTHSELALPSVSVTELDLVRGLLQALQGLSSPFLFWDQTGQTFRAKSHIRVSHLSHSSLHVLLAGFLYPATCLKLVESIVAAINTSLRSPPTLMAFSDSVSAWLEANIALKEEVMIDNSDITVTPTLLGLTSAEYLLQVVHGAIPHTFFDSNSTISAAEIAVHVLDYLYKKLDEVCLVQGGEVEGFHMLLQMFAGSLLPYIEGLDSWLFEGTLDDPCEELFFTANQSVSVDDAEFWEKSYQLMKVPNSKSNVTSLNEKKVMSGHDANSSLASDKDKEQNTRVLCPLFIKDICKSIVSAGKSLQLMQHIPSTSSENSGKTQFHGRNGYGKSSVGSLLTKMSSCSSTADLSLSEVFCLTLAGLIGHGDHVSRYLWKDEADEWEISPTLASYISGELVNDMDNKDLPVLTCSERMWYKLLVGAVQEKRAMEAKSELQSACYATGVKDGNSGLTAQKALQGLFCNENLVVSVSKMDLERNRNAWNVLNLSQNYCLPSLNDESLLSAVFEESGMADAGLSGTNYKFGFQFGRSEYISSQDDTNLLETLFPFPTLLPSFQAEPMDTRLPVVIMQECFTIYIRRQVDYIGKVILSKLMNDWKLMHELAVLRAIYLLGSGDLLQHFLTVIFDRLGKGESSNDDFELNIILQESIRNSADAMLLSSPDSLVVSISREDRDKDDKGDIIPLSSTRKSRVNSFGIDCLESLKFTYKVPWPLELIANSEAIKKYNQVKRAKYVLDKARRWMWKGKGSATKIRKHHWLLEQKLLNFVDAFHQYVMDRVYHTAWRELCEAMVKAGSLDEVIYVHETYLLSIQRQCFVVQEKLWAIIASRINMILGLALEFYSIQQTLSSGGAVSAIKARCEMEIDRIEKQFEDCIAFLLRVLSSKLNVGHFPHLADLVTRINYNYHYMSDTGSLMTTSGAETNSSRPWTAKSDV”, the protein production entry is recorded as “failed”.

In the case of “MGHHHHHHSHSWDFGAFQSSSATDSSMEEIFQHLMAYHQEASKRISSHIPLIIQFFMLQTYGQQLQKAMLQLLQDKDTYSWLLKERSDTSDKRKFLKERLARLTQARRRLAQFPG”, the protein production entry is listed as “failed”. In the case of “MLDPHSRMPLYHQIESHLREVIRSGKWQAGEAIPPERLLIEQYGVSRITIRQALANLVAAGLLYRKHGRGTFVAGAKERPITESLANLTGHLEELQLRGLDPRVRVLALETRPMIAEVAEALQRSPGAEGWYLYRIVTVEQQPLMLSTVWLPCDLGVELNEELLKQHGMALLLTHNGIAPLRGSQRIGAMSAGPEEARLLGVRAGEAVLRVSRVIHGAADRPLVWFRTLYRSDRYEYEVELKRGRPHA”, the protein production result was “failed”. “MKGNSFGEIISSEDIGLRKGADSSHEIITSIPSGARVNIIDKMSKDWYKVSYKDFTGYLQAKDIRVLGLEHHHHHH”: the protein production entry is recorded as “failed”. In the case of “MEIKQPAELSHVLTMTHRNLLKMWHNPDNVSDVVIQPIIFTLLFGYLFGGAIAGSVQAYLPMLVTGILIQSILNAASGSGQQLREDINAGVFDRFKTLPISPIVPLAGQLVGDVFRLLISGLMALVTAFMMGWRPIVSPLVLIGVLLLAVFVGWSLSWVFALVGLMVKNAALIGSLSMIIILVLTFLSNAFIPTKTLPHLLQTIVRLNPVSLTITAMRTILRTGHWGPDAFGVLLSGFLIIVIFMPLTVLAYRRFG” it was “failed”. To “MTADPTKNDPHGLGTASRPAAELAVGETETIPVIEETARIDKRVVEKGRVRVQTRTETTDDVLRETLRSDVVGVTRIPIDRVIAEGEVAPTIRTENGVTIIPVLEEVLVVEKRLILKEEVHIRQTTSGEAVEVPVTLRRQHAVVERVSADGHVSEIPPKEQTP” belongs “failed”. For the sequence “MLGRAFQDLNRLRQISAAMARHGFGAYLERMRLRDVLGRDAPPPGQPLPPPDRTTAARFRTMLGELGPTFIKLGQLLSSRPDVLPSHWVDELEKLQDACPPVGVAEIREEIERGLGRPVEALFAALDPVPLASASIAQVHRATTHEGVQVVVKVQRPRIREQIESDLALLHDLAGLLEAVVEETGIYTPTGVMEEFDRTIHEELDFSNEARNATAMYETSAGREFLVIPRVHKALSCDTVLTLDYVEGVKVSDVTAEAGFDLEQVARNVIEASFRQLFEDGLFHGDPHPGNILVLPGNRIALLDFGLVGRLSRVQQEALVTLIVAVALRDPETVARVLNRIGVPDARAPITEFREDIRVILDRYLGLRLDEIRSATLLRDLLDLAIRHRIRIPKEYAVLAKASVTIEGIIRRLYPKLDILEVGLPYAKELLLSRFNPSDASGLVMRALLKLQGLAEDVPTQLSQILVDLEGGKFRVNVASDAIDRIGGHVRALGVLLFLGLLAAGLTVGGLVVLAGGEGLLGGLALGAAALLCAFAAAYHLATLRMRKISLRRWLKR”, the protein production result is on record as “failed”. To “MANVKLLLPYILKWEGGFVHDPADAGGATNKGVTIATWKRVGYDKDGDGDIDVEDLKLLTDDDVLNRVLKPFYWDRWKADLIESQKVANILVDWVWGSGKYGIVIPQRILGVQADGIVGNKTLQAVNSADPDELFESIFDARREFLEDITARSIKKYEDSIGRKATERELLRHTNKRFLRGWLNRLEDIRKL” belongs “not failed”; to “MDRSERLIQLISEEGIDAFLIMNIENSARASSVYFSGFTGSFSIILISENTRLLITDSRYTVQAKQETDFEVREVKGGDFIDVLKKTVNDLKIKTIALEEERVSLSLFRRISSAFGDRKFIGIDDEVKQMRMVK”, “failed”; to “RNFLNNQQIRAQVHRRILEQLPTEGEIVLLGHSLGSVIAADLLRRLPPELTVKGFVTIGSPLANGQFNVDDLFKLLRTPLSNVSWWVNFWSGS”, “failed”. To “MRAMRLVEIGKPLKLEDIPIPKPKGSQVLIKIEAAGVCHSDVHMRQGRFGNLRIVEDLGVKLPVTLGHEIAGRIEEVGDEVVGYSKGDLVAVNPWEGEGNCYYCRIGEEHLCDSPRWLGINYDGAYAEYVLVPHYKYLYKLRRLSAVEAAPLTCSGVTTYRAVRKASLDPSKTLVVIGAGGGLGTMAIQIAKAVSGATIIGVDVREEALEAAKRAGADYVINASSQDPVSEIRRITQGKGADAVIDLNNSEKTLSIYPYVLAKQGKYVMVGLFGADLKYHAPLITLNEVQFIGSLVGNQSDFLGIMSLAEAGKVKPMVTKTMKLEEANEAIDNLENFKAVGRQVLVP” belongs “not failed”; to “MEFPDLTVEIKGPDVVGVNKLAEYEVHVKNLGGIGVPSTKVRVYINGTLYKNWTVSLGPKEEKVLTFNWTPTQEGMYRINATVDEENTVVELNENNNVATFLEHHHHHH”, “not failed”; to “MFAHIGEDYVVNSSELLLIMSYDIFMSSEDNLRILESLKNEDRLVVINDDLKKSIIILEIDGRLYAIVSPVSSTTIAKRFLNFNYYVDNYLDESLEHHHHHH”, “not failed”. To “DDDLEVKEENGVWVLNDGNFDNFVADKDTVLLEFYAPWCGHCKQFAPEYEKIASTLKDNDPPIAVAKIDATSASMLASKFDVSGYPTIKILKKGQAVDYDGSRTQEEIVAKVREVSQPDWTPPPEVT” belongs “not failed”; to “MVGKMNEWELALKNKDCKKLLELFDDYFDEVSEDKLEEELKRVGEVAVECEDFDLIHEIAHIYEHLGEAEKGIDLYKRIVEKRKGRNTEDYAEALYYLADAYDHFGMPEEALKTYEELLELEKRIGNKREIGLTLANLAIIKDELGNVEEAIKLMEEARKIFEELKDENNYLISLIDLAHFKYELGEYEEAMKLIREVLRNPVDKEIEVNARLVESEIYAGERKYKEAAISLRNALQRSEDDEELFSLVFDSLTEFLEGLFNESRYRELVEVSPLFAELFEDDTKYFFNAIKGLAEWRLGNEKAREEFEENYKNIQNEELKALLDEWRRPKLSLGLNL”, “failed”. On to “MLEHFRAGWAKVMNPIADALLRAHVTPDVVTWIGTIGAVLMALICFPQGWLWQGPWLVTLFIFSDSLDGNMARKLGRHSQWGSFLDSTLDRFGDAAIFTGVALYFAGPGNSVLWTAMACAALVFGMATSYVRAKAESLALEAKVGIATRADRLLVSLVAIEITGLARVGAFPHWCVVALPIALCYLTLAGAITVVQRMVAVRRACES”, for which the protein production entry was “failed”.

With “MLRIIVIGTTGSGKTTFARALAQRLGLPHGEQDAWNHEANWQMAPLGRFRARVDTFTSQPAWVMDGNYGKARDLGWARADTLIWLDFPAWLVYSRLVRRTLWRVLTQQELWNGNRETWRGALLDPEGPLRWFWKTHWRRRQETPALAAEFPHLRLVRLRSPGEARRFLAAVGRGHPTALEHHHHHH”, the protein production result is “failed”. To “MIINITILEDNESDFITLSDSIKKWAANTGILINIIWLNSYKKFIKSLPTLKCDLFFSDIELNCNNSFTGIDACKQLRESGYTGIIIFLTAFKEYVFDGYDVQAFNYLLKPINYGTINNCLDKFIHLFSLEHHHHHH” belongs “not failed”.
